Experiments:
[1] = biological target: gp70 env protein of amphotropic MLV (4070A envelope), on purified viral particles (amphotropic murine leukemia virus (4070A envelope)); assay: ELISA on plate-bound MLV, dilution factor 10, Exp121-Ana Plate 1
[2] = biological target: gp70 env protein of amphotropic MLV (4070A envelope), on purified viral particles (amphotropic murine leukemia virus (4070A envelope)); assay: ELISA on plate-bound MLV, dilution factor 10, Exp122-Ana Plate 1
[3] = biological target: gp70 env protein of amphotropic MLV (4070A envelope), on purified viral particles (amphotropic murine leukemia virus (4070A envelope)); assay: ELISA on plate-bound MLV, dilution factor 10, Exp122-Ana Plate 2
[4] = biological target: gp70 env protein of amphotropic MLV (4070A envelope), on purified viral particles (amphotropic murine leukemia virus (4070A envelope)); assay: ELISA on plate-bound MLV, dilution factor 10, Exp125-Ana Plate 1
[5] = biological target: gp70 env protein of amphotropic MLV (4070A envelope), on purified viral particles (amphotropic murine leukemia virus (4070A envelope)); assay: ELISA on plate-bound MLV, dilution factor 50, Exp073-DTV Plate 2
[6] = biological target: gp70 env protein of amphotropic MLV (4070A envelope), on purified viral particles (amphotropic murine leukemia virus (4070A envelope)); assay: ELISA on plate-bound MLV, dilution factor 50, Exp122-Ana Plate 1
[7] = biological target: gp70 env protein of amphotropic MLV (4070A envelope), on purified viral particles (amphotropic murine leukemia virus (4070A envelope)); assay: ELISA on plate-bound MLV, dilution factor 50, Exp122-Ana Plate 2
[8] = biological target: gp70 env protein of amphotropic MLV (4070A envelope), on purified viral particles (amphotropic murine leukemia virus (4070A envelope)); assay: ELISA on plate-bound MLV, dilution factor 50, Exp125-Ana Plate 1
[9] = biological target: gp70 env protein of amphotropic MLV (4070A envelope), on purified viral particles (amphotropic murine leukemia virus (4070A envelope)); assay: ELISA on plate-bound MLV, dilution factor 250, Exp074-DTV Plate 1
[10] = biological target: gp70 env protein of amphotropic MLV (4070A envelope), on purified viral particles (amphotropic murine leukemia virus (4070A envelope)); assay: ELISA on plate-bound MLV, dilution factor 250, Exp122-Ana Plate 1
[11] = biological target: gp70 env protein of amphotropic MLV (4070A envelope), on purified viral particles (amphotropic murine leukemia virus (4070A envelope)); assay: ELISA on plate-bound MLV, dilution factor 250, Exp122-Ana Plate 2
[12] = biological target: gp70 env protein of amphotropic MLV (4070A envelope), on purified viral particles (amphotropic murine leukemia virus (4070A envelope)); assay: ELISA on plate-bound MLV, dilution factor 250, Exp125-Ana Plate 1
[13] = biological target: gp70 env protein of amphotropic MLV (4070A envelope), on purified viral particles (amphotropic murine leukemia virus (4070A envelope)); assay: ELISA on plate-bound MLV, dilution factor 1250, Exp072-DTV Plate 1
[14] = biological target: gp70 env protein of amphotropic MLV (4070A envelope), on purified viral particles (amphotropic murine leukemia virus (4070A envelope)); assay: ELISA on plate-bound MLV, dilution factor 1250, Exp074-DTV Plate 1
[15] = biological target: gp70 env protein of amphotropic MLV (4070A envelope), on purified viral particles (amphotropic murine leukemia virus (4070A envelope)); assay: ELISA on plate-bound MLV, dilution factor 1250, Exp074-DTV Plate 2
[16] = biological target: gp70 env protein of amphotropic MLV (4070A envelope), on purified viral particles (amphotropic murine leukemia virus (4070A envelope)); assay: ELISA on plate-bound MLV, dilution factor 1250, Exp122-Ana Plate 2
[17] = biological target: gp70 env protein of amphotropic MLV (4070A envelope), on purified viral particles (amphotropic murine leukemia virus (4070A envelope)); assay: ELISA on plate-bound MLV, dilution factor 1250, Exp125-Ana Plate 1
[18] = biological target: gp70 env protein of amphotropic MLV (4070A envelope), on purified viral particles (amphotropic murine leukemia virus (4070A envelope)); assay: ELISA on plate-bound MLV, dilution factor 6250, Exp074-DTV Plate 1
[19] = biological target: gp70 env protein of amphotropic MLV (4070A envelope), on purified viral particles (amphotropic murine leukemia virus (4070A envelope)); assay: ELISA on plate-bound MLV, dilution factor 6250, Exp125-Ana Plate 1
[20] = biological target: gp70 env protein of amphotropic MLV (4070A envelope), on purified viral particles (amphotropic murine leukemia virus (4070A envelope)); assay: ELISA on plate-bound MLV, dilution factor 31250, Exp072-DTV Plate 2
[21] = biological target: gp70 env protein of amphotropic MLV (4070A envelope), on purified viral particles (amphotropic murine leukemia virus (4070A envelope)); assay: ELISA on plate-bound MLV, dilution factor 31250, Exp073-DTV Plate 1
[22] = biological target: gp70 env protein of amphotropic MLV (4070A envelope), on purified viral particles (amphotropic murine leukemia virus (4070A envelope)); assay: ELISA on plate-bound MLV, dilution factor 156250, Exp074-DTV Plate 2
[23] = biological target: gp70 env protein of amphotropic MLV (4070A envelope), on purified viral particles (amphotropic murine leukemia virus (4070A envelope)); assay: ELISA on plate-bound MLV, dilution factor 156250, Exp121-Ana Plate 1
[24] = biological target: gp70 env protein of amphotropic MLV (4070A envelope), on purified viral particles (amphotropic murine leukemia virus (4070A envelope)); assay: ELISA on plate-bound MLV, dilution factor 156250, Exp122-Ana Plate 1
[25] = biological target: gp70 env protein of amphotropic MLV (4070A envelope), on purified viral particles (amphotropic murine leukemia virus (4070A envelope)); assay: ELISA on plate-bound MLV, dilution factor 156250, Exp125-Ana Plate 1
[26] = biological target: gp70 env protein of amphotropic MLV (4070A envelope), on purified viral particles (amphotropic murine leukemia virus (4070A envelope)); assay: ELISA on plate-bound MLV, dilution factor 781250, Exp121-Ana Plate 1

Sequence of gp70 env protein of amphotropic MLV (4070A envelope), on purified viral particles (amphotropic murine leukemia virus (4070A envelope)) (P21995 whole entry): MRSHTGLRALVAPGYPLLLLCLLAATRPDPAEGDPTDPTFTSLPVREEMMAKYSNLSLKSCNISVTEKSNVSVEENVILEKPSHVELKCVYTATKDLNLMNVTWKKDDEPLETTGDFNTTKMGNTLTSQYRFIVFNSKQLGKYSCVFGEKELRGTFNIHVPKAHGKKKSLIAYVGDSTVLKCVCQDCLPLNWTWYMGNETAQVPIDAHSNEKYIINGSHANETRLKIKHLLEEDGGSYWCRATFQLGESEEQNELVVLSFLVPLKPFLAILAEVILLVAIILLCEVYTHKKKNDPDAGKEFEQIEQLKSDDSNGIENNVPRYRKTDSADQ

Substance: 83A25 monoclonal antibody (rat IgG2a, anti-gp70)
- Mean OD [1]: 2.65 OD
- Mean OD [2]: 2.17 OD
- Mean OD [3]: 2.18 OD
- Mean OD [4]: 2.17 OD
- Mean OD [5]: 2.31 OD
- Mean OD [6]: 2.01 OD
- Mean OD [7]: 1.89 OD
- Mean OD [8]: 1.99 OD
- Mean OD [9]: 1.92 OD
- Mean OD [10]: 1.86 OD
- Mean OD [11]: 1.7 OD
- Mean OD [12]: 1.85 OD
- Mean OD [13]: 1.3 OD
- Mean OD [14]: 1.45 OD
- Mean OD [15]: 1.39 OD
- Mean OD [16]: 1.4 OD
- Mean OD [17]: 1.44 OD
- Mean OD [18]: 0.636 OD
- Mean OD [19]: 0.653 OD
- Mean OD [20]: 0.21 OD
- Mean OD [21]: 0.282 OD
- Mean OD [22]: 0.131 OD
- Mean OD [23]: 0.163 OD
- Mean OD [24]: 0.18 OD
- Mean OD [25]: 0.136 OD
- Mean OD [26]: 0.137 OD
